One assay deals with T1, GTKA.
T1 construct: truncation series from GTKAAAA; also called Tn-peptide GTKA, immobilized (C-terminal truncation)
T1 peptide: Biotin-APLVPTQRERGT(GalNAc)KA
Nature of the assay: ELISA; x axis = coating concentration of the peptide; 237Ab fixed at 10 µg/ml [left]. (An ELISA detects its analyte on a solid surface through an enzyme-linked reagent.)

The target of the next assay is T2, GTK.
T2 construct: truncation series from GTKAAAA; also called Tn-peptide GTK, immobilized (C-terminal truncation)
T2 peptide: Biotin-APLVPTQRERGT(GalNAc)K
Described as above.

Assay [1] deals with T3, Tn-OTS8 peptide ERGT(GalNAc)KPPLEELSGK-biotin, monomer (murine).
T3 construct: also called glycosylated OTS-8 peptide (biotinylated)
T3 peptide: ERGT(GalNAc)KPPLEELSGK(Biotin)
Description: flow cytometry of CAR-transduced mouse T cells with biotinylated peptide. Background: In flow cytometry, cells or beads pass a laser one at a time.

Assay [2] addresses T4, Tn-OTS8 peptide KAPLVPTQRERGT(GalNAc)KPPLEELSTSATSDHDH (murine, GalNAc (Tn) on the Thr of ...RERGT(GalNAc)KPP...).
T4 construct: Coated on ELISA plates at 2.5 or 5 µg/ml; also called OTS8p with Tn
T4 peptide: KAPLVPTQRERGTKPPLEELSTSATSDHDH
Description: ELISA, peptide coated at 2.5 or 5 µg/ml, biotinylated scFv, streptavidin-HRP.

Assay [3] has as its target T3, Tn-OTS8 peptide …. Description: flow cytometry of yeast-displayed clone with 1 or 10 nM Tn-OTS8 peptide. The protocol: FIG. 20. […] 10 clones were isolated from Tn-OTS8 peptide-sorted post-sort-4 and post-sort-5 populations. Each clone was stained with 1 or 10 nM Tn-OTS8 peptide and analyzed by flow cytometry. The mean fluorescence units (MFUs) of each clone is plotted on Y-axis. […] In addition, plasmid DNA was isolated from each clone to determine the kind of mutation(s), and frequency of mutation(s) (n). The sequence of wild-type (wt) and mutated residues is shown in black and maroon, respectively.

For assay [4], the target named is T3, Tn-OTS8 peptide …. Nature of the assay: Table 3, column 'Tn-linked antigen' recognized by the scFv.
Another assay has as its target T5, Tn-OTS8 peptide tetramer (murine, UniProt P22629 37-163 (Streptomyces avidinii entry), limits assumed, PE label; GalNAc (Tn) on Thr 4; C-terminal Lys-biotin).
T5 construct: How the tetramer was made is not spelled out; streptavidin-PE is the reagent named with it; also called Tn-OTS8p tetramer; tetramers of glycosylated OTS-8 peptide
Nature of the assay: flow cytometry of yeast-displayed clone with 10 nM OTS8p tetramer [B].

Assay [5] concerns the target T3, Tn-OTS8 peptide …. Nature of the assay: flow cytometry titration of the yeast-displayed mutant with biotinylated OTS8p, 0.1 to 100 nM [A].
Assay [6] deals with T3, Tn-OTS8 peptide …. Nature of the assay: yeast display, flow cytometry titration with peptide.
Assay [7] addresses T3, Tn-OTS8 peptide …. Description: yeast display titration compared with a literature value.
For assay [8], the target named is T3, Tn-OTS8 peptide …. Nature of the assay: dissociation on yeast: 30 nM biotinylated Tn-OTS8 peptide, wash, chase with 100 nM non-biotinylated peptide; sheet adds: 30-fold slower than 237mAb:OTS8p [B]. The method, then: (§1) FIG. 21. […] (B) To determine their off-rates, each mutant was stained with 30 nM biotinylated Tn-OTS8 peptide. After washing, the mutants were stained with 100 nM Tn-OTS8 peptide (not biotinylated). The decrease in binding to biotinylated Tn-OTS8p by each mutant was measured over a period of 4 hours, to calculate approximate half-lives (t_{1/2}) and off-rates (koff). […] See Brooks et al., Proc. Natl. Acad. Sci. (USA) 107(22):10056-10061 (2010).

The target of assay [9] is T3, Tn-OTS8 peptide …. Nature of the assay: yeast display, 30 nM biotinylated peptide chased with 100 nM unbiotinylated peptide over 4 hours. The method, then: as §1
Assay [10] addresses T3, Tn-OTS8 peptide …. Description: dissociation on yeast: 30 nM biotinylated Tn-OTS8 peptide, wash, chase with 100 nM non-biotinylated peptide; % binding over 4 hours [B]. The method, then: as §1
For assay [11], the target named is T3, Tn-OTS8 peptide …. Description: yeast display dissociation compared with a literature value. The method, then: as §1

Where no end group is shown, it is not given here. The star is where a group is joined. GalNAc = N-acetyl galactosamine (O-linked to Thr, Tn antigen); Biotin = O=C1N[C@H]2[C@H](CS[C@H]2CCCCC(=O)*)N1

T5 sequence (P22629 37-163 limits assumed): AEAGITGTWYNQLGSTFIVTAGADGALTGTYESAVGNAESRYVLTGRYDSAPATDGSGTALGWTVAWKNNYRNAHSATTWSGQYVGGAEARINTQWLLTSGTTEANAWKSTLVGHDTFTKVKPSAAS

B1: 237 monoclonal antibody (antibody, V domains shown)
VH: QVQLQQSGGGLVQPGGSMKIFCAASGFTFSDAWMDWVRQSPEKGLEWVAEIRNKANNHETYYAESVKGRFTITRDDSKSRMSLQMNSLRAEDTGIYYCSGGKVRNAYWGQGTTVTVSS
VL: DIQLTQSPLSLPVSLGDQASISCRSSQSLVHSNGNTYLHWYLQKPGQSPKLLIYKVSNRFSGVPDRFSGSGSGTDFTLKISSVEAEDLGVYFCSQSTHVPTFGGGTKLEIK
notes: Murine monoclonal IgG
On to B1, for which the binding result with GTKA and with GTK was “no binding (tested: 1000 nM peptide for coating)” throughout.

B2: 237-LGQ-CAR on transduced C57BL/6 mouse T cells (other)
scFv: DIQLTQSPLSLPVSLGDQASISCRSSQSLVHSNGNTYLHWYLQKPGQSPKLLIYKVSNRFSGVPDRFSGSGSGTDFTLKISSVEAEDLGVYFCSQSLGQPTFGGGTKLEIKGGGGSGGGGSGGGGSQVQLQQSGGGLVQPGGSMKIFCAASGFTFSDAWMDWVRQSPEKGLEWVAEIRNKANNHETYYAESVKGRFTITRDDSKSRMSLQMNSLRAEDTGIYYCSGGKVRNAYWGQGTTVTVSS
notes: also called CAR with dual specificity (LGQ); not shown: hinge, CD28 and CD3zeta parts of the CAR
In the case of B2, the binding result in [1] is recorded as “binds”.

B3: soluble 237 scFv monomer (biotinylated) (scFv)
scFv: DIQLTQSPLSLPVSLGDQASISCRSSQSLVHSNGNTYLHWYLQKPGQSPKLLIYKVSNRFSGVPDRFSGSGSGTDFTLKISSVEAEDLGVYFCSQSTHVPTFGGGTKLEIKGGGGSGGGGSGGGGSQVQLQQSGGGLVQPGGSMKIFCAASGFTFSDAWMDWVRQSPEKGLEWVAEIRNKANNHETYYAESVKGRFTITRDDSKSRMSLQMNSLRAEDTGIYYCSGGKVRNAYWGQGTTVTVSS
modifications: biotin on the C-terminal Avitag
notes: also called monomeric scFv; b237; not shown: N-terminal 6xHis tag; C-terminal Avitag
The Kd is the equilibrium constant for the complex coming apart. B3 showed a dissociation constant Kd in [2] of 5 nM.

B4: -VWE (wt: STHV) (scFv)
scFv (VL-linker-VH): DIQLTQSPLSLPVSLGDQASISCRSSQSLVHSNGNTYLHWYLQKPGQSPKLLIYKVSNRFSGVPDRFSGSGSGTDFTLKISSVEAEDLGVYFCSQSVWEPTFGGGTKLEIKGGGGSGGGGSGGGGSQVQLQQSGGGLVQPGGSMKIFCAASGFTFSDAWMDWVRQSPEKGLEWVAEIRNKANNHETYYAESVKGRFTITRDDSKSRMSLQMNSLRAEDTGIYYCSGGKVRNAYWGQGTTVTVSS
notes: isolated after sort 5 with Tn-OTS8p; also called clone O5-8
For the molecule B4, the binding result in [3] is given as “binds”.

B5: yeast-displayed 237 scFv TNGK mutant (scFv, not shown: large carriers; small tags and cut ends)
scFv: DIQLTQSPLSLPVSLGDQASISCRSSQSLVHSNGNTYLHWYLQKPGQSPKLLIYKVSNRFSGVPDRFSGSGSGTDFTLKISSVEAEDLGVYFCSQTNGKPTFGGGTKLEIKGGGGSGGGGSGGGGSQVQLQQSGGGLVQPGGSMKIFCAASGFTFSDAWMDWVRQSPEKGLEWVAEIRNKANNHETYYAESVKGRFTITRDDSKSRMSLQMNSLRAEDTGIYYCSGGKVRNAYWGQGTTVTVSS
Take B5: in [4], the binding result is “binds”.

B6: yeast-displayed 237 scFv LGQ mutant (scFv)
scFv: DIQLTQSPLSLPVSLGDQASISCRSSQSLVHSNGNTYLHWYLQKPGQSPKLLIYKVSNRFSGVPDRFSGSGSGTDFTLKISSVEAEDLGVYFCSQSLGQPTFGGGTKLEIKGGGGSGGGGSGGGGSQVQLQQSGGGLVQPGGSMKIFCAASGFTFSDAWMDWVRQSPEKGLEWVAEIRNKANNHETYYAESVKGRFTITRDDSKSRMSLQMNSLRAEDTGIYYCSGGKVRNAYWGQGTTVTVSS
notes: not shown: yeast display carriers: N-terminal Aga2 and HA tag, C-terminal c-myc tag
Turning to B6, the binding result in assay [4] is recorded as “binds”.

B7: T-WA (wt: STHV) (scFv)
scFv (VL-linker-VH): DIQLTQSPLSLPVSLGDQASISCRSSQSLVHSNGNTYLHWYLQKPGQSPKLLIYKVSNRFSGVPDRFSGSGSGTDFTLKISSVEAEDLGVYFCSQTTWAPTFGGGTKLEIKGGGGSGGGGSGGGGSQVQLQQSGGGLVQPGGSMKIFCAASGFTFSDAWMDWVRQSPEKGLEWVAEIRNKANNHETYYAESVKGRFTITRDDSKSRMSLQMNSLRAEDTGIYYCSGGKVRNAYWGQGTTVTVSS
notes: isolated after sort 4 with Tn-OTS8p; also called clones O4-1, O4-2, O4-9
B7: the binding result in [3] is reported as “binds”.

B8: 237-TNGK-CAR on transduced C57BL/6 mouse T cells (other)
scFv: DIQLTQSPLSLPVSLGDQASISCRSSQSLVHSNGNTYLHWYLQKPGQSPKLLIYKVSNRFSGVPDRFSGSGSGTDFTLKISSVEAEDLGVYFCSQTNGKPTFGGGTKLEIKGGGGSGGGGSGGGGSQVQLQQSGGGLVQPGGSMKIFCAASGFTFSDAWMDWVRQSPEKGLEWVAEIRNKANNHETYYAESVKGRFTITRDDSKSRMSLQMNSLRAEDTGIYYCSGGKVRNAYWGQGTTVTVSS
notes: also called CAR with dual specificity (TNGK); not shown: hinge, CD28 and CD3zeta parts of the CAR
With B8, the binding result in assay [1] is listed as “binds”.

B9: MLV (wt CDRL2: KVS) (scFv)
scFv (VL-linker-VH): DIQLTQSPLSLPVSLGDQASISCRSSQSLVHSNGNTYLHWYLQKPGQSPKLLIYMLVNRFSGVPDRFSGSGSGTDFTLKISSVEAEDLGVYFCSQSTHVPTFGGGTKLEIKGGGGSGGGGSGGGGSQVQLQQSGGGLVQPGGSMKIFCAASGFTFSDAWMDWVRQSPEKGLEWVAEIRNKANNHETYYAESVKGRFTITRDDSKSRMSLQMNSLRAEDTGIYYCSGGKVRNAYWGQGTTVTVSS
Consider B9, for which the binding result with Tn-OTS8 peptide tetramer is reported as “no binding (tested: 10 nM)”.

B10: --WG (wt: STHV) (scFv)
scFv (VL-linker-VH): DIQLTQSPLSLPVSLGDQASISCRSSQSLVHSNGNTYLHWYLQKPGQSPKLLIYKVSNRFSGVPDRFSGSGSGTDFTLKISSVEAEDLGVYFCSQSTWGPTFGGGTKLEIKGGGGSGGGGSGGGGSQVQLQQSGGGLVQPGGSMKIFCAASGFTFSDAWMDWVRQSPEKGLEWVAEIRNKANNHETYYAESVKGRFTITRDDSKSRMSLQMNSLRAEDTGIYYCSGGKVRNAYWGQGTTVTVSS
notes: isolated after sort 4 with Tn-OTS8p; also called clone O4-3
For the molecule B10, the binding result in assay [3] is “binds”.

B11: yeast-displayed 237 scFv WE mutant (scFv)
scFv: DIQLTQSPLSLPVSLGDQASISCRSSQSLVHSNGNTYLHWYLQKPGQSPKLLIYKVSNRFSGVPDRFSGSGSGTDFTLKISSVEAEDLGVYFCSQSTWEPTFGGGTKLEIKGGGGSGGGGSGGGGSQVQLQQSGGGLVQPGGSMKIFCAASGFTFSDAWMDWVRQSPEKGLEWVAEIRNKANNHETYYAESVKGRFTITRDDSKSRMSLQMNSLRAEDTGIYYCSGGKVRNAYWGQGTTVTVSS
notes: as for B6
The koff is the rate constant with which the complex falls apart. Low readings indicate a long-lived complex, high ones a short-lived complex. For B11, the figures for the equilibrium dissociation constant (Kd) in [5] and in [6] were 4.3 nM and approximately 5 nM, respectively. Further, the “fold higher affinity than the 237 IgG Fab domain (literature SPR)” value in assay [7] was approximately 30 fold. This molecule also gave an off-rate constant (koff) in [8] of 0.00042 s⁻¹. Besides, in assay [9], the “half-life (t1/2)” value is approximately 30 min. For the same molecule, in assay [10], the t1/2 came to 27 min. The “fold slower off-rate than the 237 monoclonal antibody Fab with OTS8 peptide (literature)” value in assay [11] turned out to be 30 fold.
